From US20030108545A1 come the findings set out here.

“And” between values parts separate entries of the source, which are not always exact repeats. Equal entries are not always repeated. Where two headings read alike, the source gives them in different places.

Experiment [1] deals with chimeric receptor mouse flk-1 (VEGFR-2)/human fms on transfected 3T3 cells (C441) (mouse; human) (UniProt P35918). The experiment in a line: cell-based or functional assay.
For experiment [2] the target is unchanged. The experiment in a line: saturation binding to intact C441 cells, colorimetric detection (FIG. 7).
The target in experiment [3] is KDR (VEGFR-2) expressed on the surface of HUVEC (human) (UniProt P35968). The experiment in a line: cell-based or functional assay.
Chain of KDR (VEGFR-2) expressed on the surface of HUVEC (human) (P35968 20-1356): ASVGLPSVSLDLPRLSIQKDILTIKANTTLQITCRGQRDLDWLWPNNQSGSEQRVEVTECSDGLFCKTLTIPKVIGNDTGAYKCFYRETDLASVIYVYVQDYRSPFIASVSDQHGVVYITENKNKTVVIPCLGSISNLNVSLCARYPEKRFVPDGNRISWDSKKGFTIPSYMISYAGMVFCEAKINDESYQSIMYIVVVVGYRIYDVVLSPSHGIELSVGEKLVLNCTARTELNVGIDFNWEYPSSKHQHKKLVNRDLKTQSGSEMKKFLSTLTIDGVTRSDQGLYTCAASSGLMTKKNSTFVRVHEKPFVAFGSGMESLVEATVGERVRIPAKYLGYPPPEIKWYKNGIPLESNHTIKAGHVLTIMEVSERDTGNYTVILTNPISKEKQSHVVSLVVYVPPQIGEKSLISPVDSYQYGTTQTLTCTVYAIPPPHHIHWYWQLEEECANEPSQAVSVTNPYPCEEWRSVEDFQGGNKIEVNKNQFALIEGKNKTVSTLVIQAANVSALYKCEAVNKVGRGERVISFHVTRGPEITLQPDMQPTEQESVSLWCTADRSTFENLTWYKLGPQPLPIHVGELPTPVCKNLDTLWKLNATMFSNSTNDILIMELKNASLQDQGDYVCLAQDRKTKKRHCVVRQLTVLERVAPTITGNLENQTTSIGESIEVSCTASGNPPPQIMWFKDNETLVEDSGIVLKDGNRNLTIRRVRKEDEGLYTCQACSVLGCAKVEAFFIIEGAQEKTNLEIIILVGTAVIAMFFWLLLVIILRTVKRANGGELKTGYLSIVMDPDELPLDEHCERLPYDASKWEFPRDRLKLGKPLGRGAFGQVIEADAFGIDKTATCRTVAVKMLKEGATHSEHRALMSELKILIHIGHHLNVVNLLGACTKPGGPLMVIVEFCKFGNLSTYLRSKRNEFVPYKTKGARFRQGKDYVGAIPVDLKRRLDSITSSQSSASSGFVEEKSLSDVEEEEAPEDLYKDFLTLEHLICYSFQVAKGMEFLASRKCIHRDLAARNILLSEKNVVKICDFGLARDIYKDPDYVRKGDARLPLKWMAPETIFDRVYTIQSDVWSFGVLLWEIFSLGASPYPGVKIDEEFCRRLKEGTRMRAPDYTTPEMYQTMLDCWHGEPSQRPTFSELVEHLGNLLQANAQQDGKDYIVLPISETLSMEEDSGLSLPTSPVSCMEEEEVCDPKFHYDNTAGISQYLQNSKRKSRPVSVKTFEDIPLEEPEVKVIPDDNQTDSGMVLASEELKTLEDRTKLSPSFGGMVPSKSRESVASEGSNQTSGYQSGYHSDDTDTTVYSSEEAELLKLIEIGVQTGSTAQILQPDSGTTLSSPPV
In experiment [4] the target is soluble fusion protein KDR-AP (KDR (VEGFR-2) extracellular domain fused to human placental alkaline phosphatase) (human) (UniProt P35968). Kind of experiment: BIAcore, KDR-AP immobilized. (In general: SPR reads the build-up and loss of mass on a sensor chip optically.)
Chain of soluble fusion protein KDR-AP (KDR (VEGFR-2) extracellular domain fused to human placental alkaline phosphatase) (human) (P35968 other isoform, or with tags, fused parts or gaps): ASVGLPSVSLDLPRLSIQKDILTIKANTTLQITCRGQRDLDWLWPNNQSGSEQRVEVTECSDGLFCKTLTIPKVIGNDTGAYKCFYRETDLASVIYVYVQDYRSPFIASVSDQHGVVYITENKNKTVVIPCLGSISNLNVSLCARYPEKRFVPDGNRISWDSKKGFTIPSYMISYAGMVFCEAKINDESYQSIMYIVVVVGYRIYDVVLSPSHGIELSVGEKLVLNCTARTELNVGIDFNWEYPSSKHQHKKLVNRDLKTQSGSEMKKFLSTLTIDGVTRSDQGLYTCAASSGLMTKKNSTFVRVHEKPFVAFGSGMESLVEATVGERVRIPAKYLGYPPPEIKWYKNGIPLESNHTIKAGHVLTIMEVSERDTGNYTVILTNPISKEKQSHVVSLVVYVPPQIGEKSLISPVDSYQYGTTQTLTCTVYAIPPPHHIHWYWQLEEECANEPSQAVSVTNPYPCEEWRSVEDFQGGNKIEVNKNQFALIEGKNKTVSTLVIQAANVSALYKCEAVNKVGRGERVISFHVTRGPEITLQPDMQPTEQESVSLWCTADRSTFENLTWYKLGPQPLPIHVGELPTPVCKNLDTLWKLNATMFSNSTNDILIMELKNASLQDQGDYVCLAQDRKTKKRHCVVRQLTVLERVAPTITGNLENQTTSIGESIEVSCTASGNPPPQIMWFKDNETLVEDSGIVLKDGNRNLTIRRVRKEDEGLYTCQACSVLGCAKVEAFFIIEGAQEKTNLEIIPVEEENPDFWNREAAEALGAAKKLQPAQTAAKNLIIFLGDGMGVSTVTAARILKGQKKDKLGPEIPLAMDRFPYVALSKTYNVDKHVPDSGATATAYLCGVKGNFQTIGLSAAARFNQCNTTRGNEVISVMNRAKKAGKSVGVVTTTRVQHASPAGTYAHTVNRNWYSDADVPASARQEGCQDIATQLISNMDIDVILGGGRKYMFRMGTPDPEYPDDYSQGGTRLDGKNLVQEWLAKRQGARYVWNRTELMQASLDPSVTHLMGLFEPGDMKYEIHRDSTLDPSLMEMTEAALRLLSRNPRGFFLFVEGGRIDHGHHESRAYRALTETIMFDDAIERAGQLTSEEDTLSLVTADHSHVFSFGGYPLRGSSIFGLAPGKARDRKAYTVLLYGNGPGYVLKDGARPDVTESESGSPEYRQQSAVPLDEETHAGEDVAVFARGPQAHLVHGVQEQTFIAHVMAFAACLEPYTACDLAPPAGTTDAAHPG
Experiment [5] shares this target. The experiment in a line: BIAcore, KDR-AP immobilized. The source holds these as a separate data set.
Experiment [6] shares this target. Kind of experiment: competitive ELISA: KDR-AP binding to immobilized VEGF165.
For experiment [7] the target is unchanged. The experiment in a line: competitive VEGF blocking ELISA: KDR-AP binding to immobilized VEGF165. In general terms: An ELISA detects its analyte on a solid surface through an enzyme-linked reagent.
Experiment [8] has as its target human KDR (VEGFR-2), immobilized on ELISA plates (construct not stated) (human) (UniProt P35968). The experiment in a line: direct binding ELISA on KDR-coated plates (ED50, 50% of maximum binding).
The target is the same in experiment [9]. Kind of experiment: direct binding ELISA on KDR-coated plates, anti-E tag-HRP detection.
[10] abbreviates: scale: % of the fully stimulated receptor control.

Chain of chimeric receptor mouse flk-1 (VEGFR-2)/human fms on transfected 3T3 cells (C441) (mouse; human) (P35918 other isoform, or with tags, fused parts or gaps mutant limits assumed): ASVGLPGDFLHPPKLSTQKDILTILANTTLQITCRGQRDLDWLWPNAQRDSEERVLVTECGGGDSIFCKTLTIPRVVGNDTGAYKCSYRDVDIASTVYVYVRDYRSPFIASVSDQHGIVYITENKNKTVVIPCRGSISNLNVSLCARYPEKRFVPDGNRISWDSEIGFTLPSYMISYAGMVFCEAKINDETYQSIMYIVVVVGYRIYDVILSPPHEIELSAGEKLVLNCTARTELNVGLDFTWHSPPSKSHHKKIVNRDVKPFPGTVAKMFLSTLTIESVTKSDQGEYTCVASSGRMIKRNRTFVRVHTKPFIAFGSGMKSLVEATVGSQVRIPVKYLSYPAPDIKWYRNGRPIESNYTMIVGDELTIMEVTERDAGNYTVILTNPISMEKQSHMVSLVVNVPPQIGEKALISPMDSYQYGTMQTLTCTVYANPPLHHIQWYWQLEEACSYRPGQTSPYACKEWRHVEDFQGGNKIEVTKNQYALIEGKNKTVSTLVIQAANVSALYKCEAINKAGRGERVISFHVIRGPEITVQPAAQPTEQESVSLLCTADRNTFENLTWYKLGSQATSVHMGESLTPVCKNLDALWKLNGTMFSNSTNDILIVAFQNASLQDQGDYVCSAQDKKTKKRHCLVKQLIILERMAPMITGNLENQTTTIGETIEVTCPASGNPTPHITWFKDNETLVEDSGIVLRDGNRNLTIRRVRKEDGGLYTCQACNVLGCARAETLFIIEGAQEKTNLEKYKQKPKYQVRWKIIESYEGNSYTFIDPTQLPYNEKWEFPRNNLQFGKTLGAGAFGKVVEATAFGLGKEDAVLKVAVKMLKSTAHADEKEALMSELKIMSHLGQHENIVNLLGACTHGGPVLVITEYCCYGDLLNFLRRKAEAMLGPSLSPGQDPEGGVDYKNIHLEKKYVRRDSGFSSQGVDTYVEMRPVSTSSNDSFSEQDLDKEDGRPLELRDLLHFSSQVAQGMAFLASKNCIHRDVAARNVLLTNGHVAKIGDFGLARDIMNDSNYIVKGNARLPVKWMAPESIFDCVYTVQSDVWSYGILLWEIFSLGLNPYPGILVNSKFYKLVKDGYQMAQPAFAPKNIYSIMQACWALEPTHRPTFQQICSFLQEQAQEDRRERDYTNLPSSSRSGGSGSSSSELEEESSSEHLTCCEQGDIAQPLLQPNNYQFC
Chain of human KDR (VEGFR-2), immobilized on ELISA plates (construct not stated) (human) (P35968 20-764 limits assumed): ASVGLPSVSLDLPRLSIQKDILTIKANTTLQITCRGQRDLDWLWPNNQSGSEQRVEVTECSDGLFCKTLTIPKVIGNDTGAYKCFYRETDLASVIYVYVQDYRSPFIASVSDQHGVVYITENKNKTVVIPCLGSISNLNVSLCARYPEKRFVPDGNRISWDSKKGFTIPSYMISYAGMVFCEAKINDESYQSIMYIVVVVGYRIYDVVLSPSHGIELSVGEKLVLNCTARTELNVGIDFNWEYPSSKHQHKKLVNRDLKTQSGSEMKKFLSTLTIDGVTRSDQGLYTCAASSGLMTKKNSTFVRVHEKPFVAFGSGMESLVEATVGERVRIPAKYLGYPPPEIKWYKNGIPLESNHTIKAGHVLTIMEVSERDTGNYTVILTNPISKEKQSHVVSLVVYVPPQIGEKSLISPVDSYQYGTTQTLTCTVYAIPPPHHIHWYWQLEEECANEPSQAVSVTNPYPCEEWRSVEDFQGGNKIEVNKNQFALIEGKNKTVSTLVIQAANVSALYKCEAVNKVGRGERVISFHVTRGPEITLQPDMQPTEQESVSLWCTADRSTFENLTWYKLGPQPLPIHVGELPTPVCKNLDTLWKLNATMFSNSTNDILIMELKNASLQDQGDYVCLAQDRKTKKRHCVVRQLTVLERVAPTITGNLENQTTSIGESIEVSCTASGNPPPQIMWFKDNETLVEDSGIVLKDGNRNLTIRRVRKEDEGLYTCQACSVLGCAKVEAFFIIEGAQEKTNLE

B1: rat anti-mouse flk-1 (VEGFR-2) monoclonal antibody DC-101 (antibody, from another filing, V domains shown)
VH: EVQLVETGGGLVQPGNSLKLSCATSGFIFSTTWMNWIRQTPGKRLEWLAQIEDKSNNYFISYSESVKGRFTISRDDSKSSVYLQMNNLKEEDTAIYYCSWKYRSNYYFDYWGQGVMVTVSS
VL: DIVLTQSPALAVSLEQRATISCKTSQNVDYYGISYLHWYQQKPGQQPKLLIYEGSNLASGIPARFSGSGSGTDFTLTIDPVEADDIVTYYCQQSKDYPYTFGAGTKLELKR
In the case of B1, the phosphorylation of flk-1 (VEGFR-2) by VEGF165 (40 ng/ml), antibody titration in experiment [1] was > 0.5 µg/mL and < 1 µg/mL. For the same molecule, in [1] (setting [10]), the phosphorylation level by densitometry, antibody added with ligand (C) worked out at 40 and the phosphorylation level by densitometry, antibody prebound (P) came to 6. The relative apparent affinity in experiment [2] came out at 500 ng/mL.

B2: anti-KDR (VEGFR-2) single chain antibody scFv p1C11 (scFv, from a related filing, not shown: small tags and cut ends)
scFv: QVKLQQSGAELVGSGASVKLSCTTSGFNIKDFYMHWVKQRPEQGLEWIGWIDPENGDSDYAPKFQGKATMTADSSSNTAYLQLSSLTSEDTAVYYCNAYYGDYEGYWGQGTTVTVSSGGGGSGGGGSGGGGSDIELTQSPAIMSASPGEKVTITCSASSSVSYMHWFQQKPGTSPKLWIYSTSNLASGVPARFSGSGSGTSYSLTISRMEAEDAATYYCQQRSSYPFTFGSGTKLEIK
As usually defined, the Kd is the free concentration of one partner at which half of the binding sites on the other are occupied at equilibrium, for simple one-to-one binding. The term koff denotes the rate constant with which the complex falls apart. Broadly, the kon is the rate constant with which the complex forms. The term IC50 denotes the point on the concentration scale where inhibition reaches its midpoint. What is called EC50 is the concentration that produces a half-maximal response. For orientation: EC50 (read off the curve) means the concentration needed to bring the measured effect to its halfway point. Regarding B2, in experiment [3], the EC50 of inhibition of VEGF induced DNA synthesis ([3H]-TdR) in HUVEC is 5 nM and the antibody concentration required to inhibit 50% of VEGF-induced mitogenesis of HUVEC was 6 nM. In experiment [4], the Kd stood at 2.1 nM, the koff was 0.00023 s⁻¹ and the kon amounted to 110000 M⁻¹ s⁻¹. In experiment [5], this molecule displayed a koff of 0.000227 s⁻¹ and a kon of 111000 M⁻¹ s⁻¹. The molecule further had an IC50 in [6] of 2 nM. In experiment [7], this molecule gave an IC50 of 3 nM. For the same molecule, in [8], the half-maximal effective concentration (EC50) stood at 0.3 nM. Besides, the EC50 (read off the curve) in [9] came to 1 nM.
